Data on three molecules can be found in publication PMC12394548 (Nature Communications, 2025).

Holding throughout (conditions): both partners purified
For assay [1], the target named is T1, valosin-containing protein (VCP)/p97 (UniProt P55072 1-806, terbium chelate (CoraFluor), non-site-selective labelling, DOL 0.33, in the TR-FRET assays only).
T1 construct: VCP/p97, full length; One molecule for the unlabelled protein (cryo-EM, DUB assay) and the Tb-labelled protein (TR-FRET); Hexamer seen by cryo-EM; also called Tb-VCP; terbium-chelate labeled VCP; source: co-expressed with VCPIP1 for cryo-EM data set 1 (ion exchange omitted)
T1 sequence (P55072 whole entry): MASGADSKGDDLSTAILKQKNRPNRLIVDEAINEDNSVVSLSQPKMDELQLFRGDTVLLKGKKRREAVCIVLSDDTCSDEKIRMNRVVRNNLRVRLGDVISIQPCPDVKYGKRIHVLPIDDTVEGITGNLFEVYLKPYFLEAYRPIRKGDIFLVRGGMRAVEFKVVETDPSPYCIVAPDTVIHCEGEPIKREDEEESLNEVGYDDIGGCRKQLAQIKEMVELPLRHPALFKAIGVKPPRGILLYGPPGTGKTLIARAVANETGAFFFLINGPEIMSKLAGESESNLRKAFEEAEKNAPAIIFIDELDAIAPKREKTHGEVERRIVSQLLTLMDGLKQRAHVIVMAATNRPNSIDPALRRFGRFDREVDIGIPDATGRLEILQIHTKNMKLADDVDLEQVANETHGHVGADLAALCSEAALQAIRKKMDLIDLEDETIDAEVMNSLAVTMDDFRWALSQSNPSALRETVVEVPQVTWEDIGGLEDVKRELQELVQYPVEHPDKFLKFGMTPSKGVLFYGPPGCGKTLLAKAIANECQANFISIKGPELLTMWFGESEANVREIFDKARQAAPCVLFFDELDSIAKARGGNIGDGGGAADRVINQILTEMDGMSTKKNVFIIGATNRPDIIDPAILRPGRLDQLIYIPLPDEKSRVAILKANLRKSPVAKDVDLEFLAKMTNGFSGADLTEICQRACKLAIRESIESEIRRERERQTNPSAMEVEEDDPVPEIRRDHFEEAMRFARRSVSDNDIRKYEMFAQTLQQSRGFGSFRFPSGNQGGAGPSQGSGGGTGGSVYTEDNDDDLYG
Briefly: FRET or BRET; TR-FRET displacement assay: 10 nM BODIPY-VCPIP1 WT pre-incubated with 10 nM Tb-VCP, serial dilution of unlabelled VCPIP1 WT or p47; TR-FRET buffer, room temperature.

Assay [2] has as its target T1, valosin-containing protein (VCP)/p97. The assay is described as follows: FRET or BRET; TR-FRET binding assay: Tb-VCP with a serial dilution of BODIPY-labelled VCPIP1 construct; 25 mM HEPES pH 7.4, 150 mM NaCl, 0.1% BSA, 0.05% Tween-20; 1 h at room temperature; apparent KD.
For assay [3] the target is unchanged. The assay is described as follows: FRET or BRET; TR-FRET binding assay of BODIPY-VCPIP1 WT on Tb-VCP with 1 uM AMP; apparent KD. Background: BRET reads energy transfer from a luciferase to a nearby fluorophore.
The target is the same in assay [4]. The assay is described as follows: FRET or BRET; TR-FRET binding assay of BODIPY-VCPIP1 WT on Tb-VCP with 1 uM ATPγS; apparent KD.
The target is the same in assay [5]. Briefly: FRET or BRET; TR-FRET binding assay of BODIPY-VCPIP1 WT on Tb-VCP with 1 uM ATP; apparent KD.
For assay [6] the target is unchanged. The assay is described as follows: FRET or BRET; TR-FRET binding assay of BODIPY-VCPIP1 WT on Tb-VCP, buffer control (no nucleotide added); apparent KD; another protein batch than a3.
The target is the same in assay [7]. The assay is described as follows: FRET or BRET; TR-FRET binding assay of BODIPY-VCPIP1 WT on Tb-VCP with 1 uM ADP; apparent KD.

B1: p47 (natural protein)
chain: MAAERQEALREFVAVTGAEEDRARFFLESAGWDLQIALASFYEDGGDEDIVTISQATPSSVSRGTAPSDNRVTSFRDLIHDQDEDEEEEEGQRFYAGGSERSGQQIVGPPRKKSPNELVDDLFKGAKEHGAVAVERVTKSPGETSKPRPFAGGGYRLGAAPEEESAYVAGEKRQHSSQDVHVVLKLWKSGFSLDNGELRSYQDPSNAQFLESIRRGEVPAELRRLAHGGQVNLDMEDHRDEDFVKPKGAFKAFTGEGQKLGSTAPQVLSTSSPAQQAENEAKASSSILIDESEPTTNIQIRLADGGRLVQKFNHSHRISDIRLFIVDARPAMAATSFILMTTFPNKELADESQTLKEANLLNAVIVQRLT
notes: p47 cloned into pNIC-Bio2 with an N-terminal His-6-TEV tag; printed residue numbers reach V366 (UBX domain); Used unlabelled in the displacement assay and in cryo-EM; also called adapter protein p47; source: E. coli LOBSTR, purified (Ni resin, ion exchange, SEC)
As for B1, in assay [1], the concentration for half-maximal inhibition (IC50) was 20.4 nM.

B2: VCPIP1^ΔVCPID (aa Δ589-666) (enzyme, UniProt Q96JH7 1-1222, looked up)
chain: MSQPPPPPPPLPPPPPPPEAPQTPSSLASAAASGGLLKRRDRRILSGSCPDPKCQARLFFPASGSVSIECTECGQRHEQQQLLGVEEVTDPDVVLHNLLRNALLGVTGAPKKNTELVKVMGLSNYHCKLLSPILARYGMDKQTGRAKLLRDMNQGELFDCALLGDRAFLIEPEHVNTVGYGKDRSGSLLYLHDTLEDIKRANKSQECLIPVHVDGDGHCLVHAVSRALVGRELFWHALRENLKQHFQQHLARYQALFHDFIDAAEWEDIINECDPLFVPPEGVPLGLRNIHIFGLANVLHRPIILLDSLSGMRSSGDYSATFLPGLIPAEKCTGKDGHLNKPICIAWSSSGRNHYIPLVGIKGAALPKLPMNLLPKAWGVPQDLIKKYIKLEEDGGCVIGGDRSLQDKYLLRLVAAMEEVFMDKHGIHPSLVADVHQYFYRRTGVIGVQPEEVTAAAKKAVMDNRLHKCLLCGALSELHVPPEWLAPGGKLYNLAKSTHGQLRTDKNYSFPLNNLVCSYDSVKDVLVPDYGMSNLTACNWCHGTSVRKVRGDGSIVYLDGDRTNSRSTGGKCGCGFKHFWDGKEYDNLNIDGAHAQRVGDVQGQESESQLPTKIILTGQKTKTLHKEELNMSKTERTIQQNITEQASVMQKRKTEKLKQEQKGQPRTVSPSTIRDGPSSAPATPTKAPYSPTTSKEKKIRITTNDGRQSMVTLKSSTTFFELQESIAREFNIPPYLQCIRYGFPPKELMPPQAGMEKEPVPLQHGDRITIEILKSKAEGGQSAAAHSAHTVKQEDIAVTGKLSSKELQEQAEKEMYSLCLLATLMGEDVWSYAKGLPHMFQQGGVFYSIMKKTMGMADGKHCTFPHLPGKTFVYNASEDRLELCVDAAGHFPIGPDVEDLVKEAVSQVRAEATTRSRESSPSHGLLKLGSGGVVKKKSEQLHNVTAFQGKGHSLGTASGNPHLDPRARETSVVRKHNTGTDFSNSSTKTEPSVFTASSSNSELIRIAPGVVTMRDGRQLDPDLVEAQRKKLQEMVSSIQASMDRHLRDQSTEQSPSDLPQRKTEVVSSSAKSGSLQTGLPESFPLTGGTENLNTETTDGCVADALGAAFATRSKAQRGNSVEELEEMDSQDAEMTNTTEPMDHS
modifications: BODIPY, non-site-selective labelling, DOL 0.62, in the TR-FRET binding assay
notes: VCPIP1 full length with the VCPID (aa 589-666) deleted; made from the Strep-VCPIP1 plasmid by PCR; also called VCPID domain truncation
Turning to B2, the Kd in assay [2] worked out at 67.9 nM.

B3: valosin contain protein p97/p47 interacting protein 1 (VCPIP1), wild type (enzyme, UniProt Q96JH7 1-1222, looked up)
chain: MSQPPPPPPPLPPPPPPPEAPQTPSSLASAAASGGLLKRRDRRILSGSCPDPKCQARLFFPASGSVSIECTECGQRHEQQQLLGVEEVTDPDVVLHNLLRNALLGVTGAPKKNTELVKVMGLSNYHCKLLSPILARYGMDKQTGRAKLLRDMNQGELFDCALLGDRAFLIEPEHVNTVGYGKDRSGSLLYLHDTLEDIKRANKSQECLIPVHVDGDGHCLVHAVSRALVGRELFWHALRENLKQHFQQHLARYQALFHDFIDAAEWEDIINECDPLFVPPEGVPLGLRNIHIFGLANVLHRPIILLDSLSGMRSSGDYSATFLPGLIPAEKCTGKDGHLNKPICIAWSSSGRNHYIPLVGIKGAALPKLPMNLLPKAWGVPQDLIKKYIKLEEDGGCVIGGDRSLQDKYLLRLVAAMEEVFMDKHGIHPSLVADVHQYFYRRTGVIGVQPEEVTAAAKKAVMDNRLHKCLLCGALSELHVPPEWLAPGGKLYNLAKSTHGQLRTDKNYSFPLNNLVCSYDSVKDVLVPDYGMSNLTACNWCHGTSVRKVRGDGSIVYLDGDRTNSRSTGGKCGCGFKHFWDGKEYDNLPEAFPITLEWGGRVVRETVYWFQYESDSSLNSNVYDVAMKLVTKHFPGEFGSEILVQKVVHTILHQTAKKNPDDYTPVNIDGAHAQRVGDVQGQESESQLPTKIILTGQKTKTLHKEELNMSKTERTIQQNITEQASVMQKRKTEKLKQEQKGQPRTVSPSTIRDGPSSAPATPTKAPYSPTTSKEKKIRITTNDGRQSMVTLKSSTTFFELQESIAREFNIPPYLQCIRYGFPPKELMPPQAGMEKEPVPLQHGDRITIEILKSKAEGGQSAAAHSAHTVKQEDIAVTGKLSSKELQEQAEKEMYSLCLLATLMGEDVWSYAKGLPHMFQQGGVFYSIMKKTMGMADGKHCTFPHLPGKTFVYNASEDRLELCVDAAGHFPIGPDVEDLVKEAVSQVRAEATTRSRESSPSHGLLKLGSGGVVKKKSEQLHNVTAFQGKGHSLGTASGNPHLDPRARETSVVRKHNTGTDFSNSSTKTEPSVFTASSSNSELIRIAPGVVTMRDGRQLDPDLVEAQRKKLQEMVSSIQASMDRHLRDQSTEQSPSDLPQRKTEVVSSSAKSGSLQTGLPESFPLTGGTENLNTETTDGCVADALGAAFATRSKAQRGNSVEELEEMDSQDAEMTNTTEPMDHS
modifications: BODIPY, non-site-selective labelling, DOL 0.23, as the labelled partner of the TR-FRET assays; unlabelled in cryo-EM, as competitor in the displacement assay and in the DUB assay
notes: AlphaFold model AF-Q96JH7-F1-v4 used for model building; One molecule for labelled and unlabelled protein; also called VCPIP1^WT; VCIP135; source: co-expressed with VCP for cryo-EM data set 1 (ion exchange omitted)
Take B3: the Kd was found to be 16.1 nM in assay [3]; 63.9 nM in assay [4]; 68.3 nM in assay [5]; 16.5 nM in assay [6]; 67.6 nM in assay [7]; 79.5 nM in assay [2]. This molecule returned an IC50 in assay [1] of 74.5 nM.

A word on the IC50: it is the point on the concentration scale where inhibition reaches its midpoint. Low values mean greater potency, high ones weaker potency.
